B1: Interleukin-6, P08505 (parent)
chain: MKFLSARDFHPVAFLGLMLVTTTAFPTSQVRRGDFTEDTTPNRPVYTTSQVGGLITHVLWEIVEMRKELCNGNSDCMNNDDALAENNLKLPEIQRNDGCYQTGYNQEICLLKISSGLLEYHSYLEYMKNNLKDNKKDKARVLQRDTETLIHIFNQEVKDLHKIVLPTPISNALLTDKLESQKEWLRTKTIQFILKSLEEFLKVTLRSTRQT
B2: Superoxide dismutase [Mn], mitochondrial, P04179 (parent)
chain: MLSRAVCGTSRQLAPVLGYLGSRQKHSLPDLPYDYGALEPHINAQIMQLHHSKHHAAYVNNLNVTEEKYQEALAKGDVTAQIALQPALKFNGGGHINHSIFWTNLSPNGGGEPKGELLEAIKRDFGSFDKFKEKLTAASVGVQGSGWGWLGFNKERGHLQIAACPNQDPLQGTTGLIPLLGIDVWEHAYYLQYKNVRPDYLKAIWNVINWENVTERYMACKK
B3: Triosephosphate isomerase, P00943 (parent)
chain: MRKPIIAGNWKMHKTLAEAVQFVEDVKGHVPPADEVISVVCAPFLFLDRLVQAADGTDLKIGAQTMHFADQGAYTGEVSPVMLKDLGVTYVILGHSERRQMFAETDETVNKKVLAAFTRGLIPIICCGESLEEREAGQTNAVVASQVEKALAGLTPEQVKQAVIAYEPIWAIGTGKSSTPEDANSVCGHIRSVVSRLFGPEAAEAIRIQYGGSVKPDNIRDFLAQQQIDGPLVGGASLEPASFLQLVEAGRHE
B4: Beta-crystallin B2, P02522 (parent)
chain: MASDHQTQAGKPQPLNPKIIIFEQENFQGHSHELNGPCPNLKETGVEKAGSVLVQAGPWVGYEQANCKGEQFVFEKGEYPRWDSWTSSRRTDSLSSLRPIKVDSQEHKITLYENPNFTGKKMEVIDDDVPSFHAHGYQEKVSSVRVQSGTWVGYQYPGYRGLQYLLEKGDYKDSGDFGAPQPQVQSVRRIRDMQWHQRGAFHPSS
B5: AP-4 complex subunit mu-1, O00189 (parent)
chain: MISQFFILSSKGDPLIYKDFRGDSGGRDVAELFYRKLTGLPGDESPVVMHHHGRHFIHIRHSGLYLVVTTSENVSPFSLLELLSRLATLLGDYCGSLGEGTISRNVALVYELLDEVLDYGYVQTTSTEMLRNFIQTEAVVSKPFSLFDLSSVGLFGAETQQSKVAPSSAASRPVLSSRSDQSQKNEVFLDVVERLSVLIASNGSLLKVDVQGEIRLKSFLPSGSEMRIGLTEEFCVGKSELRGYGPGIRVDEVSFHSSVNLDEFESHRILRLQPPQGELTVMRYQLSDDLPSPLPFRLFPSVQWDRGSGRLQVYLKLRCDLLSKSQALNVRLHLPLPRGVVSLSQELSSPEQKAELAEGALRWDLPRVQGGSQLSGLFQMDVPGPPGPPSHGLSTSASPLGLGPASLSFELPRHTCSGLQVRFLRLAFRPCGNANPHKWVRHLSHSDAYVIRI
B6: 3-isopropylmalate dehydrogenase, P05645 (parent)
chain: MKKRIALLPGDGIGPEVLESATDVLKSVAERFNHEFEFEYGLIGGAAIDEHHNPLPEETVAACKNADAILLGAVGGPKWDQNPSELRPEKGLLSIRKQLDLFANLRPVKVFESLSDASPLKKEYIDNVDFVIVRELTGGLYFGQPSKRYVNTEGEQEAVDTLFYKRTEIERVIREGFKMAAARKGKVTSVDKANVLESSRLWREVAEDVAQEFPDVKLEHMLVDNAAMQLIYAPNQFDVVVTENMFGDILSDEASMLTGSLGMLPSASLSSSGLHLFEPVHGSAPDIAGKGMANPFAAILSAAMLLRTSFGLEEEAKAVEDAVNKVLASGKRTRDLARSEEFSSTQAITEEVKAAIMSENTISNV
B7: Glutamate dehydrogenase, Q56304 (parent)
chain: MVEQDPFEIAVKQLERAAQYMDISEEALEFLKRPQRIVEVSIPVEMDDGSVKVFTGFRVQYNWARGPTKGGIRWHPEETLSTVKALAAWMTWKTAVMDLPYGGGKGGVICNPKEMSDREKERLARGYVRAIYDVISPYTDIPAPDVYTNPQIMAWMMDEYETISRRKDPSFGVITGKPPSVGGIVARMDATARGASYTVREAAKALGMDLKGKTIAIQGYGNAGYYMAKIMSEEYGMKVVAVSDSKGGIYNPDGLNADEVLAWKKKTGSVKDFPGATNITNEELLELEVDVLAPSAIEEVITKKNADNIKAKIVAELANGPTTPEADEILYEKGILIIPDFLCNAGGVTVSYFEWVQNITGDYWTVEETRAKLDKKMTKAFWDVYNTHKEKNINMRDAAYVVAVSRVYQAMKDRGWIKK

Variants of: B1
Details: Mus musculus; pH 4; 25 °C; Urea; CD; Sodium acetate 20 mM/; reversible: yes; structure 2L3Y; whole UniProt chain shown

Row | Variant | denaturant midpoint (higher = more stable)
1 | F200A | 2.6 M
2 | Y123A | 4.1 M

Same assay, conditions: Mus musculus; pH 4; 25 °C; Urea; Fluorescence; Sodium acetate 20 mM/; reversible: yes; structure 2L3Y; whole UniProt chain shown

Row | Variant | denaturant midpoint (higher = more stable)
3 | F200A | 3.5 M

Same assay, conditions: Mus musculus; pH 4; 37 °C; Urea; CD; Sodium acetate 20 mM/; reversible: yes; structure 2L3Y; whole UniProt chain shown

Row | Variant | denaturant midpoint (higher = more stable)
4 | F200A | 2.6 M

Same assay, conditions: Mus musculus; pH 4; 37 °C; Urea; Fluorescence; Sodium acetate 20 mM/; reversible: yes; structure 2L3Y; whole UniProt chain shown

Row | Variant | denaturant midpoint (higher = more stable)
5 | F200A | 3.5 M

Variants of: B2
Details: Homo sapiens; pH 7.8; 70 °C; Thermal; DSC; Potassium phosphate 2 mM; reversible: yes; structure 1N0J; whole UniProt chain shown

Row | Variant | ddG of mutation (higher = less stable)
6 | I82T | 2.7 kcal/mol

Same assay, conditions: Homo sapiens; pH 7.8; Thermal; DSC; Potassium phosphate 2 mM; reversible: yes; structure 1N0J; whole UniProt chain shown

Row | Variant | Tm | change of melting temperature, mutant - wild type (higher = more stable) | unfolding enthalpy (calorimetric)
7 | I82T | 56.4 °C | -13.6 °C | 64.9 kcal/mol

Variants of: B3
Details: Geobacillus stearothermophilus; pH 7.6; Thermal; DSC; TEA 100 mM; structure 1BTM; whole UniProt chain shown

Row | Variant | Tm | change of melting temperature, mutant - wild type (higher = more stable)
8 | H13N K14G | 105 °C | 
9 | K14G | 73 °C | -3 °C
10 | H13N | 77 °C | 1 °C

Variants of: B4
Details: Bos taurus; pH 7.2; Thermal; fluorescence; sodium phospahte 20 mM; NaCl; transition: 2; structure 2BB2; whole UniProt chain shown

Row | Variant | Tm | change of melting temperature, mutant - wild type (higher = more stable)
11 | W59C | 46.8 °C | -10 °C

Variants of: B5
Details: Homo sapiens; pH 7.4; Thermal; DSC; structure 3L81; whole UniProt chain shown

Row | Variant | Tm | change of melting temperature, mutant - wild type (higher = more stable)
12 | D190A | 50.9 °C | -4.9 °C
13 | R283D | 52.8 °C | -3 °C

Variants of: B6
Details: Bacillus subtilis (strain 168); pH 7.6; Thermal; CD; Potassium phosphate 20 mM; reversible: yes; whole UniProt chain shown

Row | Variant | Tm
14 | I95L T308I | 66 °C
15 | I95L M292I T308I | 70 °C

Same assay, conditions: Bacillus subtilis (strain 168); pH 7.6; Thermal; CD; potassium phosphate 20 mM; reversible: No; whole UniProt chain shown

Row | Variant | change of melting temperature, mutant - wild type (higher = more stable)
16 | M256F | -12.5 °C
17 | M256I | 0 °C
18 | M256L | 0 °C
19 | M256A | 7 °C
20 | M256V | 2.5 °C

Variants of: B7
Details: Thermococcus litoralis (strain ATCC 51850 / DSM 5473 / JCM 8560 / NS-C); pH 7; Thermal; DSC; diglycine 50 mM; KCl 700 mM; reversible: no; structure 1BVU; whole UniProt chain shown

Row | Variant | Tm | change of melting temperature, mutant - wild type (higher = more stable)
21 | D168T | 108 °C | -0.5 °C
22 | T139E | 104 °C | -5.5 °C

Reference: FireProtDB
